Measurements: publication PMC5609902 (Oncotarget, 2017)

What was measured:
rgp120 (R2) = biological target: T1, rgp120 (R2) (HIV-1 R2); test: ELISA; direct ELISA; 1 μg/ml rgp120 or rgp140 coated in 0.1 M carbonate buffer pH 9.6, 4°C overnight; antibody 1 h at 37°C; detected with HRP goat anti-human IgG; settings: both partners purified
T1 construct: gp120, the surface subunit of the Env glycoprotein, HIV-1 isolate R2; recombinant; also called native rgp120; coated rgp120; source: bought: Immune Technology Corp or Enzyme LLC

[1] = biological target: Env glycoprotein (gp160) of HIV-1 NL4-3, wild type (HIV-1 NL4-3 (clade B), UniProt Q6BC06, strain); test: cell-based or functional assay
JRFL rgp120 [2] = biological target: T2, JRFL rgp120 (HIV-1 JRFL (clade B), UniProt Q75760, strain); test: cell-based or functional assay
JRFL rgp120 [3] = biological target: T2, JRFL rgp120; test: SPR; BIACORE T200; rgp120 immobilised on CM5 chip by amine coupling (20 μg/ml); antibody in two-fold dilutions injected at 30 μl/min for 3 min; 1:1 Langmuir model, global fit; settings: both partners purified
CN54 rgp120 = biological target: T3, CN54 rgp120 (HIV-1 isolate CN54 (97CN54), CRF07_BC, UniProt Q994N8, strain); test: as above; settings: both partners purified
T3 construct: gp120, the surface subunit of the Env glycoprotein, HIV-1 isolate CN54 (CRF07_BC); recombinant; also called CRF07_BC (CN54)-derived rgp120; CN54 gp120; source: bought: Immune Technology Corp or Enzyme LLC

B1: Y498 IgG1 (antibody, V domains shown)
VH: KVQLVQSGTELKKPGASGKVSCKASGYTFNSNGLNWVRQAPGQGLEWVGWISGHSDETKHAQNFQGRLTLTTDTSTNTAYMELRSLRSDDTAVYYCARSLLRSLERLMGGTDAFDIWGQGTLVTVSS
VL: not shown
notes: as the VH of m1; as the VL of m1; Full-length IgG1, kappa light chain, made by recloning the Fab chains in the pDR12 vector; also called whole Y498 IgG1; source: 293T, transient transfection, purified from the culture medium (protein A/G sepharose)
In the case of B1, the binding result (rgp120 (R2)) is reported as “binds”, the “neutralisation of the pseudovirus with NL4-3 Env, single cycle infection of TZM-bl cells, IC50” value [1] is reported as 0.61 µg/mL and the “neutralisation of the pseudovirus with JRFL Env (Env on the virus, not the rgp120), single cycle infection of TZM-bl cells, IC50” value (JRFL rgp120 [2]) is reported as over 50 µg/mL. For the same binder, the Kd (JRFL rgp120 [3]) was 0.86 nM and the Kd (CN54 rgp120) was 0.46 nM.
